Assay results as given in IntAct's records for PubMed 31515488.

B1: Proteasome subunit beta type-1 (Homo sapiens), P20618 (parent)
chain: MLSSTAMYSAPGRDLGMEPHRAAGPLQLRFSPYVFNGGTILAIAGEDFAIVASDTRLSEGFSIHTRDSPKCYKLTDKTVIGCSGFHGDCLTLTKIIEARLKMYKHSNNKAMTTGAIAAMLSTILYSRRFFPYYVYNIIGGLDEEGKGAVYSFDPVGSYQRDSFKAGGSASAMLQPLLDNQVGFKNMQNVEHVPLSLDRAMRLVKDVFISAAERDVYTGDALRICIVTKEGIREETVSLRKD
B2: Kinetochore protein NDC80 homolog (Homo sapiens), O14777 (parent)
chain: MKRSSVSSGGAGRLSMQELRSQDVNKQGLYTPQTKEKPTFGKLSINKPTSERKVSLFGKRTSGHGSRNSQLGIFSSSEKIKDPRPLNDKAFIQQCIRQLCEFLTENGYAHNVSMKSLQAPSVKDFLKIFTFLYGFLCPSYELPDTKFEEEVPRIFKDLGYPFALSKSSMYTVGAPHTWPHIVAALVWLIDCIKIHTAMKESSPLFDDGQPWGEETEDGIMHNKLFLDYTIKCYESFMSGADSFDEMNAELQSKLKDLFNVDAFKLESLEAKNRALNEQIARLEQEREKEPNRLESLRKLKASLQGDVQKYQAYMSNLESHSAILDQKLNGLNEEIARVELECETIKQENTRLQNIIDNQKYSVADIERINHERNELQQTINKLTKDLEAEQQKLWNEELKYARGKEAIETQLAEYHKLARKLKLIPKGAENSKGYDFEIKFNPEAGANCLVKYRAQVYVPLKELLNETEEEINKALNKKMGLEDTLEQLNAMITESKRSVRTLKEEVQKLDDLYQQKIKEAEEEDEKCASELESLEKHKHLLESTVNQGLSEAMNELDAVQREYQLVVQTTTEERRKVGNNLQRLLEMVATHVGSVEKHLEEQIAKVDREYEECMSEDLSENIKEIRDKYEKKATLIKSSEE

Variants of: B1
Conditions: with KRT15, P19012
KRT15, P19012, sequence (P19012 whole entry): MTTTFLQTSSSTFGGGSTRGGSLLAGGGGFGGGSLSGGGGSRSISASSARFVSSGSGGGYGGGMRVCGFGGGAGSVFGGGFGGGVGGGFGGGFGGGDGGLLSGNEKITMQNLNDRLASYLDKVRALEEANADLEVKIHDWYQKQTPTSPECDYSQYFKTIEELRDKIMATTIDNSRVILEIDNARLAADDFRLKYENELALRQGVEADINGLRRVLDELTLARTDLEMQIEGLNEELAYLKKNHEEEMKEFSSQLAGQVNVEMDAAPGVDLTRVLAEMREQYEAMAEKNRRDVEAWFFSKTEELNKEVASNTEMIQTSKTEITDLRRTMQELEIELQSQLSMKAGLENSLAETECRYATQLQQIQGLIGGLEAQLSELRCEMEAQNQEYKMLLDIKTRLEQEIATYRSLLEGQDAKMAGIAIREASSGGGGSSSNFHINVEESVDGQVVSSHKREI

Row | Variant | effect of a mutation on the interaction
1 | P11A | with no effect

Variants of: B1
Conditions: with traf1_human TRAF1, Q13077
traf1_human TRAF1, Q13077, sequence (Q13077 whole entry): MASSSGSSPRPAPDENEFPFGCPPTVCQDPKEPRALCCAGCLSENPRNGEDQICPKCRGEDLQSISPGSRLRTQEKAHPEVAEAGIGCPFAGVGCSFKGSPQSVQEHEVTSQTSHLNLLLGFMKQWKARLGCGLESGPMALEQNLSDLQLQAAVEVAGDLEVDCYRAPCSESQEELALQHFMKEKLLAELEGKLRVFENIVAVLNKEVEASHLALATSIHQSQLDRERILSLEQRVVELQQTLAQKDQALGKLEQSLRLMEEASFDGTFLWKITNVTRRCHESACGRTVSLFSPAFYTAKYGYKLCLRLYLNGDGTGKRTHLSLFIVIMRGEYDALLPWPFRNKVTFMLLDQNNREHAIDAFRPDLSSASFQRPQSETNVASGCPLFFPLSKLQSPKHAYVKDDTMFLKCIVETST

Row | Variant | effect of a mutation on the interaction
2 | P11A | with no effect

Variants of: B2
Conditions: with amol2_human AMOTL2, Q9Y2J4
amol2_human AMOTL2, Q9Y2J4, sequence (Q9Y2J4 whole entry): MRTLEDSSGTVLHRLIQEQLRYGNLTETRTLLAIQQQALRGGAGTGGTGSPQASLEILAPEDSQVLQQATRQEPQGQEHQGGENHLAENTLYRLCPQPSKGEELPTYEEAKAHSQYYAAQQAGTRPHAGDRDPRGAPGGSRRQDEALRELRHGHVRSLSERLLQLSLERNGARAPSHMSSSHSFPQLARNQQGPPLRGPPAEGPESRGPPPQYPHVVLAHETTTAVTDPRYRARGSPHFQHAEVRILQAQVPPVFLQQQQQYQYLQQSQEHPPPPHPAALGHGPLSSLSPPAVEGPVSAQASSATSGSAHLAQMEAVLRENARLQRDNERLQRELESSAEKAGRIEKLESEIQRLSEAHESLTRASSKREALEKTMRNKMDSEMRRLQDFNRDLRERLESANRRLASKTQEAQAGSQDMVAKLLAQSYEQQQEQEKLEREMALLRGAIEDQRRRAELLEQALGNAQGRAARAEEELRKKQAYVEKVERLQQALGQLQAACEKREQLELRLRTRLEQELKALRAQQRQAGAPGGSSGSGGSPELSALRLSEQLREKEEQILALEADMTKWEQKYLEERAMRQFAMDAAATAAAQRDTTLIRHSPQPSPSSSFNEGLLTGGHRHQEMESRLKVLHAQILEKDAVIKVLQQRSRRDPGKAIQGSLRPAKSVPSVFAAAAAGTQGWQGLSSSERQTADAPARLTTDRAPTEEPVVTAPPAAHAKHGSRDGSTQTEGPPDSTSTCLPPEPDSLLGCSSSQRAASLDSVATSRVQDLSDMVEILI

Row | Variant | effect of a mutation on the interaction
3 | S55P | with no effect
4 | E348D | with no effect
5 | A605P | with no effect

Variants of: B2
Conditions: with txlna_human TXLNA

Row | Variant | effect of a mutation on the interaction
6 | S55P | with no effect
7 | E348D | with no effect
8 | A605P | with no effect

Variants of: B2
Conditions: with atf4_human ATF4, P18848
atf4_human ATF4, P18848, sequence (P18848 whole entry): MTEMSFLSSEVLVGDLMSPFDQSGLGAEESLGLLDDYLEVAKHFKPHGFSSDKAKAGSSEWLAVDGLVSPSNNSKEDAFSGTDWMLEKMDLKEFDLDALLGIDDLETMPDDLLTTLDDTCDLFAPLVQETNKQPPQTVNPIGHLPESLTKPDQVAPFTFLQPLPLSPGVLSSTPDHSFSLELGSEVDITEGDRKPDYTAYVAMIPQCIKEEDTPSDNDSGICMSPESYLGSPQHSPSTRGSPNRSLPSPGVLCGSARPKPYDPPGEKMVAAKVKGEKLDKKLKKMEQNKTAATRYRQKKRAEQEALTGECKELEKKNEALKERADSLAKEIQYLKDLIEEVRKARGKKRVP

Row | Variant | effect of a mutation on the interaction
9 | S55P | with no effect
10 | E348D | with no effect
11 | A605P | disrupting interaction strength

Variants of: B2
Conditions: with tnip1_human TNIP1, Q15025
tnip1_human TNIP1, Q15025, sequence (Q15025 whole entry): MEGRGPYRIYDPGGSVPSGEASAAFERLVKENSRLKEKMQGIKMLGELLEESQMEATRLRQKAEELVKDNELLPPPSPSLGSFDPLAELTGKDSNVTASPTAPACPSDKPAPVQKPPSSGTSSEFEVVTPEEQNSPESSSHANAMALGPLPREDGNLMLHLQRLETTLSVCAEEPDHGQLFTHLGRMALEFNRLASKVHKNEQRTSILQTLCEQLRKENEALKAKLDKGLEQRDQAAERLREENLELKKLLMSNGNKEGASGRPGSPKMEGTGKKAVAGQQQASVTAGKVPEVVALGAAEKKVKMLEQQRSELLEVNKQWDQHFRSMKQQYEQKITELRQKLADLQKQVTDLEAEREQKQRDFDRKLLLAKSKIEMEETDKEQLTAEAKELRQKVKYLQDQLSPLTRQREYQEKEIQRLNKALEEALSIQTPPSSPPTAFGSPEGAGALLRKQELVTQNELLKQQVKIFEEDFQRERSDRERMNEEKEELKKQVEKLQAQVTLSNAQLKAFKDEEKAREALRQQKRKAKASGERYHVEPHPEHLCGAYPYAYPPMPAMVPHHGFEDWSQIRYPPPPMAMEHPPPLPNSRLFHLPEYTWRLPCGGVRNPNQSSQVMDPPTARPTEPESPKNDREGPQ

Row | Variant | effect of a mutation on the interaction
12 | S55P | with no effect
13 | E348D | with no effect
14 | A605P | disrupting interaction strength
